Our source for the lowest amount of C11NH with visible signal values is patent publication US20220003777A1.

This test has as its target C1 esterase inhibitor, human plasma-derived (human) (UniProt P05155). The test is described as follows: Western blot of serially diluted C11NH/BSA probed with 20 µg/mL StcE E447D.

C1 esterase inhibitor, human plasma-derived (human), sequence (P05155 23-500 limits assumed): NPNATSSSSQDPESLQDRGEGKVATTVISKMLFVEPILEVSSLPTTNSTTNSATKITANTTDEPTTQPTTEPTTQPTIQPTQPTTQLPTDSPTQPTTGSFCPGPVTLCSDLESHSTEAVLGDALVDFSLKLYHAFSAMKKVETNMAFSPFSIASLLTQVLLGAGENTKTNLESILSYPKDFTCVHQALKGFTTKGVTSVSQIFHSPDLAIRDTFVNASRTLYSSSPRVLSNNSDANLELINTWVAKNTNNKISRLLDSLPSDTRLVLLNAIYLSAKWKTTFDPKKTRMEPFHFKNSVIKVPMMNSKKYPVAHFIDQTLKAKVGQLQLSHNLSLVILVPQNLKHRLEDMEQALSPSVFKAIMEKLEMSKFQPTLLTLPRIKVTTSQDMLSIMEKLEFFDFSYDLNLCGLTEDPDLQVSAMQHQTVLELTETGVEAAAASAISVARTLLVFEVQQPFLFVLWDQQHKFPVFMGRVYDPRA

For “StcE E447D, catalytically inactive point mutant of StcE, N-terminal His-tagged (from UniProt O82882 36-898) (enzyme; other documents disagree on this pair)”, the lowest amount of C11NH with visible signal is 0.03 µg.
